Experimental data from patent US7309594.

Test system: Protein Kinase Bα/AKT1 catalytic domain (SEQ ID NO:3, tag removed) before PDK1 treatment
Sequence (chain, as listed by the source): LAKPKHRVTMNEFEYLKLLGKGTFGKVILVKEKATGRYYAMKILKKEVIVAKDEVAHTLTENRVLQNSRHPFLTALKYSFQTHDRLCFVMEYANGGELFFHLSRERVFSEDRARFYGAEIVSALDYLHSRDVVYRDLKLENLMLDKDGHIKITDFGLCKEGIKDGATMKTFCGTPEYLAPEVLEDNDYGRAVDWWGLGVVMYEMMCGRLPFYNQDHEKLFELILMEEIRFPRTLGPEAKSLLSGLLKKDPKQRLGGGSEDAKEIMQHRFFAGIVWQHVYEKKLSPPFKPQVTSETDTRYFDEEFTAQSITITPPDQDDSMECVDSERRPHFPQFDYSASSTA

## PDK1 kinase
  phosphorylation of AKT1 (mass spectrometry): Following 120 minute incubation with PDK1, AKT1 was converted into a mixture of mono and double phosphorylated proteins
